Measurements: patent US20220017630A1 (JIANGSU SIMCERE PHARMACEUTICAL, published 2022)
Numbering of substitutions follows the chain as printed.

T1: human TNFR2 on the cell surface (CHO-TNFR2 cells; human Treg cells) (human, UniProt P20333 23-461)
T1 sequence (looked up): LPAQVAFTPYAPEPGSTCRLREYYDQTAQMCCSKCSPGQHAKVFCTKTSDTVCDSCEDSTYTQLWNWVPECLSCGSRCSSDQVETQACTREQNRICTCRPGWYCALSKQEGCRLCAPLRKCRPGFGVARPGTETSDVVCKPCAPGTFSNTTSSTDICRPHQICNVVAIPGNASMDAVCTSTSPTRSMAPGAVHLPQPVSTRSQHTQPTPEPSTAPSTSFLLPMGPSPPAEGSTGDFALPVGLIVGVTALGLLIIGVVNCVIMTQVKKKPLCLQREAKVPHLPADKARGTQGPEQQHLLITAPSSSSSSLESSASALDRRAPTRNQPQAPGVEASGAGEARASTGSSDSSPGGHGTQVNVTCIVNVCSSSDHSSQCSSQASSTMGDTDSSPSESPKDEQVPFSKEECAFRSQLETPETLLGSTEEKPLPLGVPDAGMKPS

T2: Human TNFR2 recombinant protein (Sino 10417-H08H) (human, UniProt P20333 23-257)
T2 construct: also called hTNFR2 (His tag)
T2 sequence (looked up): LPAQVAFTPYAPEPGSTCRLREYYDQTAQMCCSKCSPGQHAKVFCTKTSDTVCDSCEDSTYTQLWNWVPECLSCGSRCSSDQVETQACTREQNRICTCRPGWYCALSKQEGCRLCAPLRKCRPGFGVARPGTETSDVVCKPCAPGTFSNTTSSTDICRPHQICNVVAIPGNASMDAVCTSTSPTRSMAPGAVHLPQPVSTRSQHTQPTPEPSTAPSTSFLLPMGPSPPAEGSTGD

T3: cynomolgus TNFR2 (Sino 90102-C08H) (cynomolgus, UniProt A0A2K5VET2 132-366)
T3 construct: also called CynoTNFR2 (His tag)
T3 sequence: T2 sequence (looked up) with S16G, S36P, P117Q, N164H, E210A, S216G, M223V

T4: human TNFR2 (Novoprotein, Catalog No. C830) (human, UniProt P20333 23-257, limits assumed)
T4 construct: construct not described; also called TNFR2 protein
T4 sequence (looked up): T2 sequence (looked up)

B1: TNFR2 antibody #309 (antibody, V domains shown)
VH: EVQLQESGAELVKPGASVKLSCKASGYTFTSYWIHWVKLRPGQGFEWIGEINPNNGGTDYNEKFKRKATLTVDKSSSTAYMELSSLTSEDSAIYYCTIDSMITTTWFAYWGQGTTVTVSS
VL: EIVMTQSQKLMSTVVGDRVSVTCKASQNVGTNVAWFQQKPGQSPKALINSASYRYSGVPDRFTGSGSGTDFTLTISSVQSEDLAEYFCQQYNSYPFTFGSGTKLEIK
B2: TNFR2 antibody #352 (antibody, V domains shown)
VH: EVQLQESGPGLVAPSQSLSITCTVSGFSLTSYGVHWVRQPPGKGLEWLVVIWSDGGTTYNSALKSRLSISKDNSKSQVFLKMNSLQTDDTAMYYCARHDDDGYYAMDYWGQGTTVTVSS
VL: DIVLTQSPSLMSASPGEKVTMTCSASSSVGYMYWYQQKPRSSPKPWIYLTSNLASGVPARFSGSGSGTSYSLTISSMEVEDAATYYCQQWSSDPFTFGSGTKLEIK
B3: TNFR2 antibody #088 (antibody, V domains shown)
VH: EVQLQESGGGLVQPGGSLNLSCAASGFAFSTYDLSWVRQTPGKRLEWVAYINNGGISTYYSDTVKGRFTITRDNAKNTLYLQMSSLKSEDTAMYYCVRGPFYGSANYFDYWGQGTTVTVSS
VL: DILMTQSPASLSLFVGETVTITCRASENIYSNLAWYQQKQGKSPQLLVYDATKLAEGVPSRFSGSESGTQYSLKINSLQSEDFGTYYCQHFWVTPWTFGGGTKLEIK

Columns and labels:
[1] = target: T1, human TNFR2 on the cell surface …; experiment: cell-based or functional assay
[2] = target: T2, Human TNFR2 recombinant protein (Sino …); experiment: ELISA, coated antigen 0.5 ug/ml, antibody 12 ng/ml
[3] = target: T3, cynomolgus TNFR2 (Sino 90102-C08H); experiment: ELISA, coated antigen 0.5 ug/ml, antibody 12 ng/ml
[4] = target: T4, human TNFR2 (Novoprotein, Catalog No. …); experiment: blocking ELISA, TNFα-biotin on coated human TNFR2, antibody 2 nM
Method: (§1) A microplate was pre-coated with 100 μl/well of 1 μg/ml human TNFR2 (Novoprotein, Catalog No. C830). […] After washing the plate, a Streptavidin-HRP working solution (1:10000 dilution) was added at 100 μl/well, and incubated with shaking at room temperature for 40 min. The plate was washed again, the HRP substrate TMB was added for color development, the termination solution was added to terminate the reaction, and the microplate reader was used to read the absorption value.

[5] = target: T1, human TNFR2 on the cell surface …; experiment: flow cytometry, blocking of TNFα-biotin on CHO-TNFR2 cells
[6] = target: T4, human TNFR2 (Novoprotein, Catalog No. …); experiment: blocking ELISA, TNFα-biotin on coated human TNFR2, antibody 20 nM
Method: as §1

[7] = target: T1, human TNFR2 on the cell surface …; experiment: flow cytometry, blocking of TNFα-biotin on CHO-TNFR2 cells; against 002#
Method: (§2) CHO cells that stably overexpressed human TNFR2 were used for experiments. The cells were resuscitated and passaged until in good state, and the expression level of human TNFR2 on the cells was assessed by FACS. Compared to the isotype control, the assay could be carried out when the fold change of mean fluorescence intensity (MFI) was more than 100 times.
(§3) CHO-TNFR2 cells were digested, washed twice with DPBS and stained with Live/Dead (L/D) at room temperature for 20 min, and then seeded at 1×10⁵ cells/50 μl/well. […] The diluted antibodies were added 50 μl/well into wells pre-seeded with cells, and gently blown and mixed to make the final concentrations of the antibodies to 20, 6.67, 2.22, 0.74, 0.247, 0.08, 0.027 and 0 nM, respectively followed by incubation at 4° C. for 30 min. […] After washing twice with the staining buffer, 100 μl/well of PE-streptavidin was added and incubated at 4° C. for 30 min. After additional washing with the staining buffer twice, 150 μl resuspended cells was analyzed using an flow cytometry. Taking the logarithmic value of the antibody concentrations as abscissa and the corresponding MFI value as ordinate, the inhibition curve of the antibody was drawn, and the IC50 value was calculated by four parameters fitting.

[8] = target: T4, human TNFR2 (Novoprotein, Catalog No. …); experiment: blocking ELISA, TNFα-biotin on coated human TNFR2; 002# OD / antibody OD x 100
Method: as §1

[9] = target: T1, human TNFR2 on the cell surface …; experiment: flow cytometry, blocking of TNFα-biotin on CHO-TNFR2 cells; AUC for 002# / AUC for antibody x 100
Method: as §2, §3

[10] = target: T1, human TNFR2 on the cell surface …; experiment: flow cytometry competition on CHO-TNFR2 cells: antibody first, then human TNFα-biotin, PE-streptavidin; MFI of bound TNFα-biotin [panel #352, table under the plot]
Method: as §2, §3

[11] = target: T1, human TNFR2 on the cell surface …; experiment: cell-based or functional assay; remark: listed apart in the source

Row | Binder | % AUC versus positive control (#52), ADCC against Treg [1] | ELISA OD [2] | ELISA OD [3] | ELISA OD of antibodies to be tested (2 nM) [4] | Antibody AUC [5] | ELISA OD of antibodies to be tested (20 nM) [6] | IC50 Relative Value % [7] | % to 002# OD (2 nM) [8] | % to 002# OD (20 nM) [8] | AUC % [9] | IC50 [10] | proliferation inhibition (TNFα-induced Treg cell proliferation, against anti-Hel) [11]
1 | B1 | 56% | 1.9 OD | 2.27 OD | 2.14 OD | 27800 | 0.34 OD | 70.7% | 75.9% | 96.6% | 92.4% | – | –
2 | B2 | 61.4% | – | – | 1.78 OD | 10700 | 0.474 OD | 171% | 88.2% | 106% | 116% | 0.056 µg/mL | –
3 | B3 | 45.3% | 1.31 OD | 1.44 OD | 2.34 OD | 24300 | 0.35 OD | 41.5% | 69.3% | 94.1% | 75.4% | – | 6.9%
